# Source: patent publication US20210252040
# B1: human glu-plasminogen (Haematologic technologies) (protein)
# chain: KVYLSECKTGNGKNYRGTMSKTKNGITCQKWSSTSPHRPRFSPATHPSEGLEENYCRNPDNDPQGPWCYTTDPEKRYDYCDILECEEECMHCSGENYDGKISKTMSGLECQAWDSQSPHAHGYIPSKFPNKNLKKNYCRNPDRELRPWCFTTDPNKRWELCDIPRCTTPPPSSGPTYQCLKGTGENYRGNVAVTVSGHTCQHWSAQTPHTHNRTPENFPCKNLDENYCRNPDGKRAPWCHTTNSQVRWEYCKIPSCDSSPVSTEQLAPTAPPELTPVVQDCYHGDGQSYRGTSSTTTTGKKCQSWSSMTPHRHQKTPENYPNAGLTMNYCRNPDADKGPWCFTTDPSVRWEYCNLKKCSGTEASVVAPPPVVLLPDVETPSEEDCMFGNGKGYRGKRATTVTGTPCQDWAAQEPHRHSIFTPETNPRAGLEKNYCRNPDGDVGGPWCYTTNPRKLYDYCDVPQCAAPSFDCGKPQVEPKKCPGRVVGGCVAHPHSWPWQVSLRTRFGMHFCGGTLISPEWVLTAAHCLEKSPRPSSYKVILGAHQEVNLEPHVQEIEVSRLFLEPTRKDIALLKLSSPAVITDKVIPACLPSPNYVVADRTECFITGWGETQGTFGAGLLKEAQLPVIENKVCNRYEFLNGRVQSTELCAGHLAGGTDSCQGDSGGPLVCFEKDKYILQGVTSWGLGCARPNKPGVYVRVSRFVTWIEGVMRNN
# Molecular target: α-enolase of Enterococcus faecalis V583, surface-expressed
protein,measurement,value
B1,plasmin activity assay with enolase-blocking antibodies,The data is consistent with surface-expressed alpha-enolase being one of multiple PLG receptors on E. faecalis
